Data reported in patent US20090304686A1, “INTERFERING IN ACTIVATION OF AN IMMUNE CELL BY INFLUENCING INTERACTION OF LAIR AND COLLAGEN” (UNIVERSOTAIR MEDISCH CENTRUM UTRECHT, priority 2006, published 2009).
Blank lines part the entries; values can stand above or below the molecule they belong to.

Columns and labels:
[1] = tested on: endogenous hLAIR-1 ligand(s) on HT29 cells; test: Fusion protein blocking study on HT29 cells (flow cytometry); format: cell-based, human
Procedure: For fusion protein blocking studies, chimeric proteins of the extracellular domain of hLAIR-1 or LAIR-2 fused to the Fc region of human IgG1 were prepared as described previously(19). HT29 cells were pre-treated with 10% normal mouse serum to block aspecific interactions. Subsequently, HT29 cells were incubated with unlabeled hLAIR-1-IgG or LAIR-2-IgG for 10 minutes at room temperature and subsequently incubated with biotinylated hLAIR-1-IgG or LAIR-2-IgG for 30 minutes at room temperature. Binding of biotinylated proteins was detected with allophycocyanin (APC) conjungated streptavidin (BD Biosciences, San Diego, Calif.) and cells were analyzed by flow cytometry (FACSCalibur™, BD).

human collagen type I = molecular target: T1, human collagen type I (Homo sapiens, UniProt P02452+P08123); test: Surface plasmon resonance (BIAcore) binding of LAIR-IgG fusion proteins to immobilized collagen I
T1 construct: purchased Sigma
Procedure: (§1) Surface plasmon resonance (BIAcore) binding studies were performed using a BIAcore2000 system (BIAcore AB, Uppsala, Sweden). Approximately 2000-3000 response units (RU) of acid-soluble human collagen type I or III (Sigma) were immobilized on a CM5 biosensor chip using the amine coupling kit as instructed by the supplier. Immobilized triple-helical peptides composed of GCO(GPO)10GCOG-NH2 ((GPO)10, also known as collagen-related peptide, CRP^6) and GCP(GPP)10GCPG-NH2 ((GPP)10) were described previously^6. Approximately 250 RU (GPP)10 or (GPO)10 peptide trimers were immobilized using a cysteine coupling kit according manufacturers instructions. Analysis was performed in buffer (125 mM NaCl, 2.5 mM CaCl2, 0.005% (v/v) Tween 20, and 25 mM Hepes, (pH 7.4)) at 25° C. at a flow rate of 20 μl/min for collagen I and III interaction-studies and 5 μl/min for the immobilized peptides. […] Increasing concentrations of hLAIR-1-IgG were injected and allowed to reach an equilibrium plateau for 10 minutes. The delay between injections was 13 min, during which time the biosensor chip was flushed with buffer. In case of peptide-binding studies, biosensor chips were regenerated by injection of 0.1 M H3PO4 (2 min, 5 μl/min).
(§2) Dissociation constants (Kd) and the number of binding sites expressed as the response at infinite hLAIR-1-IgG concentration (Bmax) were calculated as follows. First, the response at equilibrium (Req) was calculated for each association curve. Subsequently, Kd and Bmax were determined from the binding isotherms (Req plotted against hLAIR-1-IgG concentration) by fitting equation Req=Bmax*[hLAIR-1-IgG]/(Kd+[hLAIR-1-IgG]). The fit was calculated using computer program GraphPad Prism (GraphPad Prism version 3.00 for Windows; GraphPad Software, San Diego, Calif., USA). […]
(§3) The surface plasmon resonance binding studies were performed as described before(15). LAIR-2-IgG dimer concentration was calculated based on a theoretical mass of 82.5 kDa.

human collagen XVII = molecular target: T2, human collagen XVII (Homo sapiens, UniProt Q9UMD9); test: LAIR fusion protein staining of Ba/F3 cells transfected with human collagen XVII; format: binding
T2 construct: Full-length human collagen XVII, HIS-tagged human collagen XIII, and human KIR3DL1 were kindly provided; expressed in transfected cells; host or cells: Ba/F3 (retroviral transduction)
T2 sequence (Q9UMD9 1-1497): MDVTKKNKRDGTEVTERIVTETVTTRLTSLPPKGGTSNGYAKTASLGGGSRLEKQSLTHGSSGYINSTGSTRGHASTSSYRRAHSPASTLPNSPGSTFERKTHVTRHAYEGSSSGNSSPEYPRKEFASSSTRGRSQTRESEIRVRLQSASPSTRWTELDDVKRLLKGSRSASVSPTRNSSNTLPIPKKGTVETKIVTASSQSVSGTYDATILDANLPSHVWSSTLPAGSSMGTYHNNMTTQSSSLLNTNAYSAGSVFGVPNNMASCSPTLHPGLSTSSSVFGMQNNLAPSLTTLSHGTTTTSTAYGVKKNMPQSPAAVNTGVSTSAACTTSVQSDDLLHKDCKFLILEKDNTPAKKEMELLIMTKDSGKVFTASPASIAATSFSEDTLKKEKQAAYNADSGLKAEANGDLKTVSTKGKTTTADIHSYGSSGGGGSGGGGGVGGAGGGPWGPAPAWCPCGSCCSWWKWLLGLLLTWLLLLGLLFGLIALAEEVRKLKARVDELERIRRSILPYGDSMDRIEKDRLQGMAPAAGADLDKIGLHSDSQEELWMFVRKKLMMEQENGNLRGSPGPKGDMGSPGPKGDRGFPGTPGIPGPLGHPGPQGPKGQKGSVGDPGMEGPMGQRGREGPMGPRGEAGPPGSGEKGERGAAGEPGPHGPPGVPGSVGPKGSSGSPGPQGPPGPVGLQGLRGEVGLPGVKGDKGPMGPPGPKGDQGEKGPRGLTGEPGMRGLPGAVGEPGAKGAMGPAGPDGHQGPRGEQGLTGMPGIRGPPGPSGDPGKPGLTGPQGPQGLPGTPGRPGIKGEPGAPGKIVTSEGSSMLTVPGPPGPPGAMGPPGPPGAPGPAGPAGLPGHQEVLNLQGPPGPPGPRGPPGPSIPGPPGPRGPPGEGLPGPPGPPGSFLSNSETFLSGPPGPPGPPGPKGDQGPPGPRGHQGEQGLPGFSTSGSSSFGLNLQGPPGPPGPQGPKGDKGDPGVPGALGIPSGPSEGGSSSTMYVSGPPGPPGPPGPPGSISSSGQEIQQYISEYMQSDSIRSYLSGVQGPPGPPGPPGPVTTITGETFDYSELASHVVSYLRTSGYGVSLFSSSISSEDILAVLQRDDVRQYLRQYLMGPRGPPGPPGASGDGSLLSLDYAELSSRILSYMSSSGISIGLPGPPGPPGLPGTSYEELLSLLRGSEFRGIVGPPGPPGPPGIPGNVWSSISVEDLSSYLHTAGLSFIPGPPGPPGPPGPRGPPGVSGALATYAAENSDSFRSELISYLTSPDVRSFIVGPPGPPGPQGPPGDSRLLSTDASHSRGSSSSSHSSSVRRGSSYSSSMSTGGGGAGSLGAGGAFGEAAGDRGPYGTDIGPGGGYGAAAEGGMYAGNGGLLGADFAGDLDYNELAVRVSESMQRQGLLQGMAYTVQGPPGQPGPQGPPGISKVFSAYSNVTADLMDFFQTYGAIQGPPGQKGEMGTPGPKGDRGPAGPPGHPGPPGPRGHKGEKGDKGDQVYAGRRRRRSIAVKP
Procedure: Chimeric proteins of rat, mouse, and human LAIR-1 or human LAIR-2 fused to the Fc region of human IgG1 were prepared and cell lines were stained with these reagents in the absence or presence of blocking antibodies as described previously^11. When indicated, cells were incubated for 1 h with 100 units/ml chromatography purified C. histolyticum collagenase Type VII (Sigma) prior fusion-protein staining.

human collagen type III = molecular target: T3, human collagen type III (Homo sapiens, UniProt P02461); test: Surface plasmon resonance (BIAcore) binding of LAIR-IgG fusion proteins to immobilized collagen III
T3 construct: purchased Sigma
T3 sequence (P02461 154-1221 limits assumed): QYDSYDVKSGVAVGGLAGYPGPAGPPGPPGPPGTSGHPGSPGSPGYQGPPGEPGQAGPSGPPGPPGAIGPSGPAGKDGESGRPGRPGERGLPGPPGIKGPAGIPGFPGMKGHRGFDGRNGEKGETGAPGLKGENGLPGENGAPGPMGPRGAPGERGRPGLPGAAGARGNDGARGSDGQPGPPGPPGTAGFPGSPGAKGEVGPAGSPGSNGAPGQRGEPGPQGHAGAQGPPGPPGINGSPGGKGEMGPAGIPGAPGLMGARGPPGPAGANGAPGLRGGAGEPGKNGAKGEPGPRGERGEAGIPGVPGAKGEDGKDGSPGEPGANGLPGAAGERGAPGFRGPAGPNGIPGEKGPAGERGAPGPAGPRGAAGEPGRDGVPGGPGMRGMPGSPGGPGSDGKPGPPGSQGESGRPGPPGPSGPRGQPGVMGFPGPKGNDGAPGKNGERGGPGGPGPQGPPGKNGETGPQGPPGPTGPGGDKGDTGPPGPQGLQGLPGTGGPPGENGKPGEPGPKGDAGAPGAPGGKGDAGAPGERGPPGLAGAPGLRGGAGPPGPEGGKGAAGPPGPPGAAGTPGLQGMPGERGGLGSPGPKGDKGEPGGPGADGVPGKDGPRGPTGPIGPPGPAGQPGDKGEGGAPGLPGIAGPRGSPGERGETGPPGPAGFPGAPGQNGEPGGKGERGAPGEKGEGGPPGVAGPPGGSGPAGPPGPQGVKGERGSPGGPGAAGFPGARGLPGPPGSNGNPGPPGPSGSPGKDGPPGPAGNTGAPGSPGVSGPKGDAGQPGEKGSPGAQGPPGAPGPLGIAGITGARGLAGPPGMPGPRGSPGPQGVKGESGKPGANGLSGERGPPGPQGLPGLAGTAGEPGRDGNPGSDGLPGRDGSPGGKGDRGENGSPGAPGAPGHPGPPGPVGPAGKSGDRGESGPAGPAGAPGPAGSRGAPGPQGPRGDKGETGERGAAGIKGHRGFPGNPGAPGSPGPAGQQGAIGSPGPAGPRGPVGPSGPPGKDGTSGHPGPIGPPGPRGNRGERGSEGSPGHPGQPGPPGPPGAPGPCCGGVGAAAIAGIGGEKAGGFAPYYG
Procedure: as §1, §2, §3

[2] = tested on: hLAIR-1/collagen interaction; test: Blocking of binding of hLAIR-1 expressing K562 cells to plate-bound collagens I and III; format: cell-based, human; conditions: pre-incubation of plate-bound collagens
Procedure: Purified commercial collagens I, III (Sigma), II (Chemicon International), or BSA (100 μl/well, 20 μg/ml in PBS, 2 mM acetic acid) were coated overnight at 4° C. in 96-well MAXIsorp (Nunc) flat-bottom plates. After washings, wells were blocked with 1% (w/v) BSA. Meanwhile, 5×10^6 cells/ml wild type K562 cells or K562 transfectants were fluorescently labeled for 30 min at 37° C. with 5 μM calceine AM (Molecular Probes) in PBS. Cells were washed twice with RPMI/1% FCS and 100 μl medium of 1.5×10^6 cells/ml cells was added to each well and plates were incubated at 37° C. for 2 h. Input fluorescence was determined using a fluorescence plate reader (Fluoroskan Ascent, Thermo Labsystems), the plates were firmly flicked and washed for six times in culture medium. The retained fluorescence was determined for each well as a percentage of input fluorescence.
96-well MAXIsorp flat-bottom plates (Nunc) were coated overnight at 4° C. with purified collagens I or III (Sigma, 2 and 5 μg/ml respectively) or BSA (5 μg/ml) in 100 μl PBS, supplemented with 2 mM acetic acid. 5×10^6 cells/ml wild-type K562 or K562 stably transfected with hLAIR-1 were assayed for their capacity to adhere to the collagens in the 96 well plates as described before(15).

T1 sequence (P02452 162-1218 limits assumed): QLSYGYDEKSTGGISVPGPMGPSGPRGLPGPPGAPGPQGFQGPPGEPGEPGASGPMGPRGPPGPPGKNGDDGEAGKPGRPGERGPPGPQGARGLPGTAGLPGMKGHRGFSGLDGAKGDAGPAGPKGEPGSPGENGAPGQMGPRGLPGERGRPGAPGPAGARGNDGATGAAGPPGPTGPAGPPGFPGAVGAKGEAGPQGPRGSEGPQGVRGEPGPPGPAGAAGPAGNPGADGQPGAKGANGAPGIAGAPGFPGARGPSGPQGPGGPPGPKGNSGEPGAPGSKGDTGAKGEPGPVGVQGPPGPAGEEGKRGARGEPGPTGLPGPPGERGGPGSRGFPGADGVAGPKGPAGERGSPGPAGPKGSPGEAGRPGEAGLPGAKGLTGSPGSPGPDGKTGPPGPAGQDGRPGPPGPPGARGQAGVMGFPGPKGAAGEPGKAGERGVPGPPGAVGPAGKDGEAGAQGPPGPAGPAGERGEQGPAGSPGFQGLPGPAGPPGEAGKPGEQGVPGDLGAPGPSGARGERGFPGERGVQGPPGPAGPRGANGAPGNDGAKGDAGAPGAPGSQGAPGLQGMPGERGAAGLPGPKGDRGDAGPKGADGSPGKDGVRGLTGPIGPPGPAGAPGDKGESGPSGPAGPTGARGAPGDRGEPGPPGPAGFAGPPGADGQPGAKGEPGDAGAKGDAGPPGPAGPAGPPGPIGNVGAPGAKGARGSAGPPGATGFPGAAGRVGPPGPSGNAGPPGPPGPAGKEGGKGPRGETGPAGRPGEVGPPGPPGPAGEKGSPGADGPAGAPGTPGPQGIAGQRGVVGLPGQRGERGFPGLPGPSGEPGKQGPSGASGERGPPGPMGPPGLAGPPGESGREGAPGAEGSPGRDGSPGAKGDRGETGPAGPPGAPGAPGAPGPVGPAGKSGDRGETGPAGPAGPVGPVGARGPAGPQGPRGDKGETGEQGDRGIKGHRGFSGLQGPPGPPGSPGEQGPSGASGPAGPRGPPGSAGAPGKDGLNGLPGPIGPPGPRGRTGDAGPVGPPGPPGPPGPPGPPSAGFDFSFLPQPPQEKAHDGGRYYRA
T1 sequence (P08123 80-1119 limits assumed): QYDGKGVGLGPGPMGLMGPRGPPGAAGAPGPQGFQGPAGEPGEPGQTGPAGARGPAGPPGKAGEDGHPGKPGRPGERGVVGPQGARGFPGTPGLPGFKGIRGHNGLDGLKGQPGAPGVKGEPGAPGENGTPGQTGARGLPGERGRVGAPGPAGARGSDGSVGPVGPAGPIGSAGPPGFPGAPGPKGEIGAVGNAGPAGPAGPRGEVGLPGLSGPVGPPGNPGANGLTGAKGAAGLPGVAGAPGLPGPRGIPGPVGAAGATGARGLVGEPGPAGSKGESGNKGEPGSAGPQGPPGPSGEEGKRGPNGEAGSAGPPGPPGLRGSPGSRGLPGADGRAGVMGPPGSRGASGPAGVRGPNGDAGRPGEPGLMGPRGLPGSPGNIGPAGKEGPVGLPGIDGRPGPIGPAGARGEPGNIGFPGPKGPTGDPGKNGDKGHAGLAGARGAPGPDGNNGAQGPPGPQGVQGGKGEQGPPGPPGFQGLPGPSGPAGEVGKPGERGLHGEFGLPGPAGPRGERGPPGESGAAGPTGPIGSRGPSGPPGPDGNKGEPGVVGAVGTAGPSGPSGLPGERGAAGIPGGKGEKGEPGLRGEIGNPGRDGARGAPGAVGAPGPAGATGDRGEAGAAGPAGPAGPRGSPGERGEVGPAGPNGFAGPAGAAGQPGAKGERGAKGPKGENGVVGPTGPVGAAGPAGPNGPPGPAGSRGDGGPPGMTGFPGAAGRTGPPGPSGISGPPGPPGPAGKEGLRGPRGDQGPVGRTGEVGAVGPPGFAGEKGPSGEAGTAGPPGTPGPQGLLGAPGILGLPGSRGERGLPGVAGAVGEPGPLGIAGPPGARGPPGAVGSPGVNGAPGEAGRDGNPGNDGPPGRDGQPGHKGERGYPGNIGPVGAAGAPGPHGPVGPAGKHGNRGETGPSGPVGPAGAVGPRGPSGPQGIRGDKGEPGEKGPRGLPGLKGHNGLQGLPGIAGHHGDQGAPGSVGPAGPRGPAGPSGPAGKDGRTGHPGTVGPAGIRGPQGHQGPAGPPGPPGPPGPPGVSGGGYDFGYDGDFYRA

- binding to collagen I (in words) (human collagen type I): high affinity
- higher affinity as compared to most IgSF-members interacting with their ligands (human collagen type I; collagen I and III): 20-1000 fold
- binding to Ba/F3 cells stably transfected with human collagen XVII (human collagen XVII): specific binding
- binding to collagen III (in words) (human collagen type III): high affinity
- dissociation from collagen (in words) (human collagen type III; hLAIR-1-IgG: collagen I and III, LAIR-2-IgG: collagen III, collagen I comparable): relatively slow dissociation
B1: hLAIR-1-IgG: Chimeric protein of human LAIR-1 fused to the Fc region of human IgG1 (protein)
chain: QEEDLPRPSISAEPGTVIPLGSHVTFVCRGPVGVQTFRLERDSRSTYNDTEDVSQASPSESEARFRIDSVREGNAGLYRCIYYKPPKWSEQSDYLELLVKESSGGPDSPDTEPGSSAGPTQRPSDNSHNEHAPASQGLKAEHLY
modifications: left off: a dimerising Fc or GST
notes: Chimeric protein of human LAIR-1 fused to the Fc region of human IgG1
- biotinylated LAIR-2-IgG staining of HT29 cells after pre-incubation [1]: reduced
- number of LAIR molecules / binding sites per single triple-helical collagen I molecule (Bmax) (human collagen type I; from Bmax of binding isotherm): approximately 10.4
- number of LAIR molecules / binding sites per single triple-helical collagen III molecule (Bmax) (human collagen type III; from Bmax of binding isotherm): ~9.7

B2: wild-type LAIR-2: wild-type LAIR-2 protein in concentrated supernatant from LAIR-2-transfected 293T cells (protein)
chain: QEGALPRPSISAEPGTVISPGSHVTFMCRGPVGVQTFRLEREDRAKYKDSYNVFRLGPSESEARFHIDSVSEGNAGLYRCLYYKPPGWSEHSDFLELLVKGTVPGTEASGFDAP
- blocking of binding of hLAIR-1 expressing K562 cells to plate-bound collagens I and III [2]: blocked
